The DeepSol protein solubility set

Experiment: soluble on expression in E. coli; label from the status in PepcDB or PDB records

Sequence | soluble on expression in E. coli
MAHHHHHHMIMKKLIENNVIKLNYENFLTKYKLNSGNEQKDLSDEELYEHFIINTFNYSKPLGCLPPNISNIKEYYLDGINIFEVINYVNISERMYKFENITEEDDKENEDDSKEIFSHSEPDEKHDCEIKSRKNNKNSKISNNNKKDGNNIKSNKYRRFYRFLLYDGKSFIYAYEQEYNEIFTYLESNKYIYPKIILYNKPLIRRGAILLKKNQVIILFKGCIVSGNDTEDNEIEDFPIISESNNINSGVHQNIHDDLYTTRNTYDNKNMTDDSHNLIRKFYYADKGMEKEEYKTYYENTNNCGVLSNTNRSNEYYSRSSMHNNNNYSFNEYAKHNYKYDQNHVKKNIEYYYNKDKNCYITSIDYNNNNNNNNNSINNSNNEYTGNNYNNNNKGNHYYYHNIHNNHMHDTHNSKNYIGSNRYNTDKASYNYYNNHYKNKQHYIDPQRNNYYTHGINHDDYSKENYLNAFEYKNHNSYKEPLRNYSNDHPRNSYNKNKYNIFNENKRNSSSKNNRNSSSKNNRNSSNKNNRNSSKEYFKRNSNKFDNAYDNTYHDNNTRINHHSDFSRKNNDGFYRNNDNNYNNETYVKNHFSNEAKYNAGYQRLSDNLENRNRMNCENNNNYYSTYGHSDYNVNYNNKNNRNIPLSNLNEKNNHIPSNNYYTENYLPEKEGNRNILTNQINNYSINSVNNNFEQINPSTCNYNKNNVFPYNKEDDKNKFVEMKNVEEEYHNDNQERARKNSENSKKLIDLTEGFFSSEFFHKSYECNDVNKNSDIIILDD | soluble
MAHHHHHHMKAKGFHHSTPNFNTAEFTDAADPSDLANDIVTESAVAVDFARDIYGPWLVMTDDLQGELFVDHDGFVYYRPANGLGYGIGKLQVLDAGATGTAFTCQLESYSYQPTNTVVPQYGLTFDITGMVKRVTAKSSDYKTFSLVGVWRRSNRNKGAPALLPSQRSSSDAAVEGASAALSPESLDNQGALDGPGEKTSGQFNAAKLSPWDPSTAARPFAPNAELQSVFTQVFPERLRAESHVQRAEASRESPAARHLAGCAGKPSLMHLDLEQYATGKIPGIYYIPDYISVAEEAQILTFIHGTPEELKSKLTKRTCQEWGCTMCESCQKSFVSDANMPQWVQEFIDMQVYDGLFTPTTFPNSVRIHEYHQGDGIGPHCDGPIYVPMVTVLSLASSCLMSFYPKQPLYENHPMDHYNDTFKFGEGDIGRRVPLQSVVMEPRSLLIFSGEGYYHYPHGISDKAEEVLTPEVVGEVVNRRFLRDPHVQSIPRTYRASITTRNLMTRCSHQPARAEYAMKRAWYLYNHLPVPSELFTPAPQLPQQQQQPAGVSAGGSSGSRESSDASATRSPQKRVESFFPACAPPGTVAVDTELREAIYEMRARQEDLRNNVEELKQLVALSIPVQTTFQTETATILNHLSSSVLQLESKVDDLLEEVESAKRKSSTDT | not soluble
MAHHHHHHMKCEVDRPVTQNTERNGSEGNVAKNYMTHLYQFQNNEMKKIDASYFENKYLGLFFGASWCRYCVTFIQNINFFKKNFPFIEIIYIPFDKTYNDYVAFLKATDFYSLPFDNYLYICKKFNIKNLPSFMIIAPNNNVLVKDAVQLIKTDTYVNNFKSLVKNYTVHPSHFKIGNRFFDLFCA | soluble
MAHHHHHHMKDGDWERRNRLKVYEGIYHVFIRDFKRGSELLLDSISTFASSELMDFNEFILITVVASLPVLSRSELKQQILDSPEVRSANIKDVFHLITVIYNCRYKEVFSALDTVCQHLRGIVYLSQHVNYFFREVRVLVFTQFLDSYSSVTLNSMSAAFGIPPPVLDSMLGTLISNERIACKMDRVSDSITTYRGDTTNFDYHRIVKNGDLLLNRIQKLSRLAEM | not soluble
MAHHHHHHMKKAKGSMKRLREGAENGTGGRNSSMKRQKGSTTGALSFAITNNTVTLERKARRQPKVAERCEDDDDEEDVELSKAVQAQTLSFLQHLNSKSSKTFWELRDVAQGKLSAASATTATSSSSQLPSSSRTKAAKGNAKGAKKLADDGEELWRVGGPYISGDQADDTDESERECGRTSDSELQSSTSSSEPSWVTDSSEEEDGGGSDDEAESAPVAAGATSRRSAAEPPKRGGGGGRLFQGGGDGVWDED | soluble
MAHHHHHHMKQNGGRETPDGVRYPHIALDVLGQCHSSACVELGNTRVICAVHHPQQLVDEYRGSRGRVACTVRRSASAGSHAAGSAQPSVVTPEKDMSLALEGVAEEVVILEKIPQLLVEVVVEILAEDGGVWDAVATSMSAALVSGGFEMYDLFSACGSALLSDGAVVLDPDAAEESNAQASALVCLMLNSGDICYARHQGSCEPGTVLELVSSAMKGCLSRKSAITTQLINHPIL | not soluble
MAHHHHHHMKRGGRKKKGTLSNKLGKGKNDPSEDEEVIESETSSDEMGESNSASEESIDSDADNLSDKEQESQAEKQIQIYFTSNVANEKYQMEDTIYTIPATFKRIDLSRMVKKLLDIKENVSFEFLINDQILRSSIEEFLQLNNILSENVIEIKYILSITKKESTPIDKISEWISKLIIIENRLYCSTFGGSALCYDMSNFAKIDARKVADMSIFAFNVCKNDKLIDGEVKYSESVVGLSNGTIRAFLNEEMDQKIVTRSDLYLGNHDDMVKSIAFNKSGSLLITGGADNKINLYDNKEIVQKLKEYKSENDTNKRKMKHVLTPKKCIHKDVGIITTLTFFNSNNHFLCTGLEKNIKIYDADTADLFATLPYGKAIMCSDILNDNLFVTADEQSVIKLFDVRCLEEKAVISMNENKYFFHDKVITSLWGNKNGIHFLSSSHDGFTNIYDVRLNKFPVYTIQTEDKSKVLSSTWFYRESNNYVINADENNLTLHSF | not soluble
MAHHHHHHMKRVANAKHATYDMPPKGLRVRDMLEKTAQQNCNQRKRGKCRKFFFLWKMDKMGDTHLGGQANGRKNLLRSESATDEASLGGNPLKEKLKESPANWGKDKQEEQQSTDRLPLPKVGNKMPEKKPDWFHVPAPTGKKYNELKADLKKLKLHTVCEEAQCPNIGECWNIGTATIMLLGDTCTRGCKFCSIKTSSKPLPPDANEPFNTAKAICEWDINYVVLTSVDRDDLPDGGASHFAKTIELIKFSRPEILIECLVSDFQGNVDSIRKLANSGMEVYAHNIETVRRLQKFVRDRRANYEQSLWVLKTAKEINPLLYTKTSIMLGLGETKQEVLQAMADVRQNNIDVITFGQYLRPTKNHLNVVEYVSPQMFDYYKEEGMKMGFKYIASGPLVRSSYKAGEYFMKNLVEQRRGVKLHAEG | not soluble
MAHHHHHHMKVSFTLFFIIYIILNCDVLKCEVESSDSTSFLNLISGQSSSNSDDTVSSSDSRGVVASVSGTVDSDVSRTDSTGNVNSKNSELSETRQNSVEQNNNSNSSDNSIKIKSAFLKENVGVKITGPCDEGFGLVMVPHIIINVDTRNTDIQLGKKSSEINYGIKLRKKGKDEYEEKVGIDLLKNVCETGKNFKFVAYIKGDELIIKWKVIEEGNIPIDIKKFKIKRMSPPITSIQVFSSMSDEKSFVLENKNYVVTNNMPEKCEALATNCFLSGNIDIEKCYQCSLLVENDSKSDVCYNFISRENKEKLNEERFKVKGSTEYEESVESELKGAIDLLISSFYKSDGENGENVLISFEDLNSTLEDDIINFCSLLKLVDLSG | not soluble
MAHHHHHHMLCAGKGRVEATQDVARQFLRKCVERLEKNEKDMAVKFDITMTMVSLRCADQCCDLLKPGASYEKMMMGSSPVYGPCLLGLETKVHKTASECVSSFDAGLKNAKEDKEIVAAFFVLKTIKKTGAEEEVHLSSLCIALCGETVAHKTDIRDKAASSPHRLFRYAVDGACVTVSGLWIVSKDVDAREGLEVERKMREVKNQPPRSGNVKRFVDYTYKEIMRQKEKLESATGSEKKTREAQIERMEEMVKDAKELLTSPENTRPKGYSMGR | not soluble
MAHHHHHHMLHLHRCAAQGDWLFLKNLHLVLDWASVLEKELCAMPIPSAEFRLIITTEPHDSFPVVLLRMSAKVTIEAPPGMKQNLLQSYTTWDEAFLQGKTKTTSQVLFGLAWFHALLQERRGYIPQGWVKFYEFSSADLKSAADVLCTLSRDKMDWTTVRGLLQECIYGGRLENSHDERVLERLISRIFNDETLVSCDRRLYDDMRVPATNVHRAVVQFIREHLPDADSPSILSLPDNADRAVKEQFALKLTEDLHTVSHLAQVCVSATEAWRTLLAPVLELWKNSALEPEGNAATVSPGETKEDPMSIFFMRELELLVGIVSNLTETFYDLRCVVEGTLIPSPELREEGTELIGGRVPPRWLDLMDGPKDVKLWFALLRRRRDTMMEYAKRPFSPSTPFDLIDFLRPQTFLNALRLYTVRVSNEALVELMLVATPVGRTADRLGVGFTLKGKSIHLQGALLDAQGILSLPSASSPSSTPLSCDVWAAWMSKHNTEGLARIPIYTNAGRTAAIMDLFLSCDSDMAEKLLLGGVAAFLMSV | not soluble
MAHHHHHHMLHTTRLWLGGYMMYHRKAMGTMKYSKWKGAHGGISHFYGRTPMVEEVRPNEPITLVDRRIMHYVHHSRLRHFQLFRSYQEKSNSTECKLREGEMLRRRWHRRLQKSFIAFMQFKTMKVLEDQARLVNTYGQAAVNAALGDPWNATDNVARERKSAAVRRQVRALPMVNVVPKHVATMKQIHNDRFNYRWRVN | not soluble
MAHHHHHHMLKFRERLSKNCLPAFNLELVYQCAERALEEELNETCSAAKCVPMSGISERIFVGTWRDAADEKLLRQMCITHTLNVARELVDTEEMHRVESVPFVTSKSIPLSDSLDEDIVHHFEDAFEFIRGATRNGRILVYCRRGMSRSAAIVVAYLMESEGMSFCDAHNDVKDKRPCISLNLAFLQRLQEYEEHLEKVRAAARTN | not soluble
MAHHHHHHMLKRYERTKLNVLRGERFLRLCEVSYRAVCRDPSLGGAEGIANIEDRTWEMVQRTFQASPERCSLKNAPFSVDGVEICALLRRPDNVFLILVAQYRPPVDAVVLEFPAGLVDNGEDVKSAALRELKEETGYVATEENIISVTDALCCEPGMTDSCCKFVRLFVDGEKEVNRFPQQELDEGEDIEVILLPISLKKGVAGGDTPLQSLNKLLHEKNKGQQRNIVDAKLYMFLDGLSQMSTMFC | soluble
MAHHHHHHMLMHSSTLGSVTYTGMKRRSNAASFSTYLRYSSKVVAPIVRSSPRANMGFKRFAASIAPSDLPAPSTTCISSMKRMMGVGLSRTSFKTLFRRSSNSPRYFAPAIRAPRSREKMREEERVSGTSPRTICCAMPSTMDVLPTPGSPIKTGLFFVRRDRTRMVRNTSSARPISGSSLPSSACRHMSIAYLDNAS | not soluble
MAHHHHHHMLRRVVAPAPVSATAACAGQARSIYEYKFGQTPLTQPFGGTSRLPPGPSSNPAPVAPGKVEITKLHNGARVITHNLGGPSVSVGAYILAGPAYDPPSAPGAGAMMHLALTTSNYNNSLFQLDRNIRSVGAAQSHFEKHKHYIGIRIDARADKWKSAASTSSFSQRRQLQNQKQAEQQFSLNLVQDNIFTCIAAPRFHEPDVERFRDTIDNQVEELRWQCPAEYAKQMLETVAFYREPLGNPRFVPAMSNSIISSSVLLEQYSRYIVPSRVVVAGVNVDHAALIAEYENTPFPHSASAPHHARAQPCVVNWKDEASQYTGGERHDHEDRPKVMGTKPDMDPESIIAVGWLAYGKDRKMVKDHAASMVVGALMDIGFSGCMRCGAPDEMHEHTGLRAFYNPYQTAGLIGFTAKAEPQAAVRMVTDAVKMVRASQASVADSMLSVAKKMAKTQFMVQTVDTIRDYCDYLGTCLAVDSDSTLATSVEEVVDAINSVNAADVKRVYEKMFSNKTSLYGHGEMLGFPSMRQMGL | not soluble
